The conditions of this data set: Escherichia coli (strain K12); pH 7; 4 °C; GdnHCl; CD; PBS; whole UniProt chain shown.

B1: Major outer membrane lipoprotein Lpp wild type, P69776 (protein)
chain: MKATKLVLGAVILGSTLLAGCSSNAKIDQLSSDVQTLNAKVDQLSNDVNAMRSDVQAAKDDAARANQRLDNMATKYRK
As for B1, the unfolding free energy was 18.8 kcal/mol.

Values taken from FireProtDB (doi:10.1006/jmbi.2000.3776).
